# Measured values: paper PMC9584609
# Legend:
# [1] = biological target: ClC-2 tagged with mVenus and PAmCherry (human) (UniProt P51788); experiment: native gel or EMSA; high-resolution clear native electrophoresis (hrCNE); lysate of transfected HEK293T cells in 0.1 M sodium phosphate with 0.5% digitonin or 20 mM DDM; 4-14% acrylamide gradient gel run at 4 °C; mVenus fluorescence scanned; VGLUTs and sialin with and without PNGaseF
# [2] = biological target: bClC-K tagged with mVenus and PAmCherry (Bos taurus); experiment: as above
# Chain of ClC-2 tagged with mVenus and PAmCherry (P51788 2-898): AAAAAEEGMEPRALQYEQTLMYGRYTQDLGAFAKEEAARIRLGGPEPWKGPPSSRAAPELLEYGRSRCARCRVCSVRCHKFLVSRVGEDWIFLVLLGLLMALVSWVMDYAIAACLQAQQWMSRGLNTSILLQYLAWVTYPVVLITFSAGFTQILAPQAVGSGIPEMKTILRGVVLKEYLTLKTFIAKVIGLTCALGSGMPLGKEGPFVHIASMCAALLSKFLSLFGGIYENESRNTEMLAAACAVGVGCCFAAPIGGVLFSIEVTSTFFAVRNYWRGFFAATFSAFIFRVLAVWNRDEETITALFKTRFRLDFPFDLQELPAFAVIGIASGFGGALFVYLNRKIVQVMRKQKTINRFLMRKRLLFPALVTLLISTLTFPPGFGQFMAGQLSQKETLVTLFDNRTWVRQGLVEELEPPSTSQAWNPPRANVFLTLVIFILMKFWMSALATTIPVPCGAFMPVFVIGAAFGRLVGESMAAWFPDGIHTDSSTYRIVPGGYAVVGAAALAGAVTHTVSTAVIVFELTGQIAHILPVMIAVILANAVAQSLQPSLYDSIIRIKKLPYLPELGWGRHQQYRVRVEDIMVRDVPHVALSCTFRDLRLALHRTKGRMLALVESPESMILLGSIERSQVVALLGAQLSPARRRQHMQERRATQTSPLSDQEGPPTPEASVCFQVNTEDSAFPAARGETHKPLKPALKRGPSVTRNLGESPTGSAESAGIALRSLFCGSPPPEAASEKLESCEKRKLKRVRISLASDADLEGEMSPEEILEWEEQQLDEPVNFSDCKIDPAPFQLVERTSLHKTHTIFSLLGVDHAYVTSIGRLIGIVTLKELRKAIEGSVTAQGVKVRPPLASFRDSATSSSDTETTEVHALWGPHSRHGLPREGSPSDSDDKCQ
Substance,stoichiometry N [1],stoichiometry N [2]
ClC-2 tagged with mVenus and PAmCherry (from UniProt P51788 1-898) (natural protein),2,–
bClC-K tagged with mVenus and PAmCherry (natural protein),–,2
